# Data taken from US8080531B2, “Methods for modulating checkpoint activation through TopBP1” (California Institute of Technology, priority 2006, dated 2011).
# B1: W1138R mutant of GST-XtopBP1 (972-1279): point mutant of the fragment in which the tryptophan in the WDDP motif was changed to arginine (protein)
# chain: EQQKRVPEALYPHTYNPKMSLDISAVQDGSYTASKFSADTSLQQDENSELQLQQNNKFGETSDDQVKKAAGDGNPQNPSKDVKGALTQTLEMRENFQRQLQEFMSATSVVKPRGSVGRAGFDNSPCTPEGARSTRNGRSRVLEALRQSRQAMTDLNTEPSQNEQIIRDDPTAREERAKLVSNLQWPDSPSQYSEQLQHNMNDAGGNYTPAKESLTDSEIAELEACEFEPKSAMRTPVIENNLQSPTKPDHLTPTPQAPSIAFPLANPPVAPQPREKPVQPFSKEETLKERRFQLSSLDPQERIDYSQL
# modifications: left off: a dimerising Fc or GST; small tags and cut ends
# notes: point mutant of the fragment in which the tryptophan in the WDDP motif was changed to arginine
# B2: W1145R mutant: W1145R mutant of EGFP-NLS-TopBP1 (978-1286), analogous to the W1138R mutant of XtopBP1 (protein)
# chain: KKKRKVAQECKHLPESLYPHTYNPKMSLDISAVQDGRLCNSRLLSAVSSTKDDEPDPLILEENDVDNMATNNKESAPSNGSGKNDSKGVLTQTLEMRENFQKQLQEIMSATSIVKPQGQRTSLSRSGCNSASSTPDSTRSARSGRSRVLEALRQSRQTVPDVNTEPSQNEQIIRDDPTAREERARLASNLQWPSCPTQYSELQVDIQNLEDSPFQKPLHDSEIAKQAVCDPGNIRVTEAPKHPISEELETPIKDSHLIPTPQAPSIAFPLANPPVAPHPREKIITIEETHEELKKQYIFQLSSLNPQERIDYCHL
# modifications: left off: large carriers
# notes: W1145R mutant of EGFP-NLS-TopBP1 (978-1286), analogous to the W1138R mutant of XtopBP1
# Tests used:
# [1] = target: Xatr-Xatrip (Xenopus laevis, UniProt Q9DE14); test: Kinase assay of Xatr-Xatrip complexes isolated from Xenopus egg extracts; format: biochemical; parameters: increase of kinase activity of Xatr; other: Xatr immunoprecipitated from Xatrip-depleted extracts
# Sequence of Xatr-Xatrip (Xenopus laevis, UniProt Q9DE14) (Q9DE14 whole entry, the tested form may be a part): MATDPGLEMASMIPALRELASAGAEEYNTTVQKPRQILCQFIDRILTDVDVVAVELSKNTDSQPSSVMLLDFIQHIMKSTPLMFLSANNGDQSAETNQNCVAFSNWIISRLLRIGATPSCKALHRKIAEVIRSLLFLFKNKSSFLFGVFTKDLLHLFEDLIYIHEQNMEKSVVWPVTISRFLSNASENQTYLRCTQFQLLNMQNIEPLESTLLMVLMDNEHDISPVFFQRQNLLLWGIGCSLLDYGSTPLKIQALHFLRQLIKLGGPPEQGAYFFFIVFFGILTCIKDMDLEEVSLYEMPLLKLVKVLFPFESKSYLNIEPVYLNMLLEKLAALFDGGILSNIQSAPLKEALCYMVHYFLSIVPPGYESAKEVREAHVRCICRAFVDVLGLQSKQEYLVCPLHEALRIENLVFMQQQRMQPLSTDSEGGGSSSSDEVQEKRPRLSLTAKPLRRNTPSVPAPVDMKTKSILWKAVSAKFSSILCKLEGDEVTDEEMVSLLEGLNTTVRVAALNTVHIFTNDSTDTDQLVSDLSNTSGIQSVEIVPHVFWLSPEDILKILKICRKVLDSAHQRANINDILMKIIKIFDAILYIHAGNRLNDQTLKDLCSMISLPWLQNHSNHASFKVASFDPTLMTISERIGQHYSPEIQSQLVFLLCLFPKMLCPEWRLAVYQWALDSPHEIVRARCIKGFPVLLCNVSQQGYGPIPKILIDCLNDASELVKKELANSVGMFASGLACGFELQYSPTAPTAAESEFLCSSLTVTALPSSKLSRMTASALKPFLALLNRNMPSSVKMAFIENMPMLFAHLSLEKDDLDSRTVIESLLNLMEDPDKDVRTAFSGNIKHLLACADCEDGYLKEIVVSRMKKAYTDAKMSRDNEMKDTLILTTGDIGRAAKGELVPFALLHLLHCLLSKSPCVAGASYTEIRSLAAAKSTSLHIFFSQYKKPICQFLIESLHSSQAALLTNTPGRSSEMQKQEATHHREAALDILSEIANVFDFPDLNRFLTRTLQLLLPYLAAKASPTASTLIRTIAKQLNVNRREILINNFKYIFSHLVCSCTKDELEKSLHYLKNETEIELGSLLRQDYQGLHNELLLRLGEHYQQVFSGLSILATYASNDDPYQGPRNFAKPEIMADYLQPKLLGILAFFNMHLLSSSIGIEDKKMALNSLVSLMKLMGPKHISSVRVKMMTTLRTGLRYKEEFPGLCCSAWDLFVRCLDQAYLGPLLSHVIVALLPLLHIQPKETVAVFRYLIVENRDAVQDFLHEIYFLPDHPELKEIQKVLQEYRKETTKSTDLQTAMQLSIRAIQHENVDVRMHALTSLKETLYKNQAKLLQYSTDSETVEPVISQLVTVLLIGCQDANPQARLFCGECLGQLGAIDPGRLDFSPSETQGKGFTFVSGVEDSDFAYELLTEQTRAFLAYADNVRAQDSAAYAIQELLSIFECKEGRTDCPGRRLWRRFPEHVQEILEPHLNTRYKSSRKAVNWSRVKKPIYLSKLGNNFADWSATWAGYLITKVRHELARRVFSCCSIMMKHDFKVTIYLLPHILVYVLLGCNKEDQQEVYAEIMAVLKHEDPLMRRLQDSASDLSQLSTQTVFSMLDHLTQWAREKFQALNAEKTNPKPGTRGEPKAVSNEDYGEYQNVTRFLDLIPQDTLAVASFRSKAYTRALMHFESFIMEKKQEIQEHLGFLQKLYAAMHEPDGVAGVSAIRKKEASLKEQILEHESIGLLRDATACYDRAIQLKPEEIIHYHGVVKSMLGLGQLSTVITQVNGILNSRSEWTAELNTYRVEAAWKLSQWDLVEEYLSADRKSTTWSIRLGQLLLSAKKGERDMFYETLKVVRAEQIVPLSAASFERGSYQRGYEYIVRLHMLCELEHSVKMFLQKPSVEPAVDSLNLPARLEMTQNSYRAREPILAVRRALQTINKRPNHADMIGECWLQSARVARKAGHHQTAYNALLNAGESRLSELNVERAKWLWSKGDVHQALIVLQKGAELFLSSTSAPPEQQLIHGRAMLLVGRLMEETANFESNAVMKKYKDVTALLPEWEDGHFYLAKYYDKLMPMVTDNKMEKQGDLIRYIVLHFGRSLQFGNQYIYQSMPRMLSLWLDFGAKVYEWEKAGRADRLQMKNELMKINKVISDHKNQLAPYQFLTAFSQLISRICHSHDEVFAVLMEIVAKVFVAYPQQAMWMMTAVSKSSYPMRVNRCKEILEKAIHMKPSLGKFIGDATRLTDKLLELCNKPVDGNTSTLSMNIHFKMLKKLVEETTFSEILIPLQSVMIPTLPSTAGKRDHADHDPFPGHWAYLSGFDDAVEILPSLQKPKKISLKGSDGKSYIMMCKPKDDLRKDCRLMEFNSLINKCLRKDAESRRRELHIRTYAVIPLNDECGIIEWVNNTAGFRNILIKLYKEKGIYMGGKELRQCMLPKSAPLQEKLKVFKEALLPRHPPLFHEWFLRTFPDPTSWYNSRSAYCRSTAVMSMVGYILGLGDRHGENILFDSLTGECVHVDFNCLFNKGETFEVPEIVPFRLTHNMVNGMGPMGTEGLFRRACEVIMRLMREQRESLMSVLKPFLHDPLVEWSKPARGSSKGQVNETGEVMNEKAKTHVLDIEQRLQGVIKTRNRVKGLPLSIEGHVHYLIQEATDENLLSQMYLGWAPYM
# From the text: (§1) Specifically, Applicants first isolated Xatr from egg extracts by pull-downs with FLAG-tagged Xenopus ATRIP (Xatrip). For these experiments, Applicants used both full-length Xatrip and an N-terminal truncation mutant (ΔN222) that supports normal Xatr-dependent activation of Xchk1 in egg extracts (Kumagai et al., 2004; Kim et al., 2005).
# (§2) Applicants eluted the beads with FLAG peptide and mixed the eluates with a His6-tagged version of XtopBP1 that had been purified from baculovirus-infected insect cells (FIG. 1B). Finally, Applicants added ^32P-ATP and PHAS-I, a commonly used model substrate for ATR (Abraham, 2001).
# Xatrip-FLAG and XatripΔN222-FLAG (20 ng/μl each) were incubated in interphase extracts containing anti-FLAG M2 antibody beads (Sigma) for 60 min at room temperature. The beads were isolated and washed twice with buffer A (10 mM HEPES-KOH (pH 7.5), 150 mM NaCl, 0.1% CHAPS, and 2.5 mM EGTA) and twice with HEPES-buffered saline (HBS; 10 mM HEPES-KOH (pH 7.5) and 150 mM NaCl). Xatr-Xatrip complexes were eluted in one-tenth the volume of the egg extract in HBS containing 0.1 mg/ml 3×-FLAG peptide (Sigma) for 60 min at 4° C. Eluates (2 μl) were used for kinase assays as described below. […]
# [2] = system: Xatr-Xatrip; test: as above; format: biochemical; settings: for activation of Xatr kinase activity toward PHAS-I: isolated Xatr-Xatrip complexes, 32P-ATP, result in words
# Sequence of Xatr-Xatrip (Q9DE14 whole entry, the tested form may be a part): as above
# From the text: as §1, §2
# Xatrip-FLAG and XatripΔN222-FLAG (20 ng/μl each) were incubated in interphase extracts containing anti-FLAG M2 antibody beads (Sigma) for 60 min at room temperature. The beads were isolated and washed twice with buffer A (10 mM HEPES-KOH (pH 7.5), 150 mM NaCl, 0.1% CHAPS, and 2.5 mM EGTA) and twice with HEPES-buffered saline (HBS; 10 mM HEPES-KOH (pH 7.5) and 150 mM NaCl). Xatr-Xatrip complexes were eluted in one-tenth the volume of the egg extract in HBS containing 0.1 mg/ml 3×-FLAG peptide (Sigma) for 60 min at 4° C. Eluates (2 μl) were used for kinase assays as described below.
# (§3) Samples were incubated in 20 μl kinase buffer (50 mM Tris-HCl (pH 7.5), 10 mM MgCl2, 1 mM dithiothreitol, 100 μM nonradioactive ATP, and 100 μCi/ml [γ-^32P]ATP) containing 12.5 μg/ml PHAS-I or 50 μg/ml GST-Xmcm2 (62-122) for 30 min at room temperature. GST-XtopBP1 (972-1279) was added at a final concentration of 100 μg/ml unless indicated otherwise. In some cases, GST-Xmcm2 (62-122), GST-Xchk1 (306-352), or full-length Xchk1-Myc-His6 were used as substrates with only […] nonradioactive ATP. Reactions were terminated by boiling in gel sample buffer.
# [3] = system: Xchk1; test: Checkpoint-dependent phosphorylation of Xchk1 in XtopBP1-depleted egg extracts with aphidicolin and sperm nuclei; format: biochemical, Xenopus; settings: added back to XtopBP1-depleted extract, aphidicolin
# From the text: Applicants proceeded to remove endogenous XtopBP1 from egg extracts by immunodepletion with anti-XtopBP1 antibodies (FIG. 7C). In parallel, Applicants used control antibodies to prepare mock-depleted extract. Next, Applicants added back wild-type His6-XtopBP1 or the His6-XtopBP1-W1138R mutant to aliquots of the XtopBP1-depleted extract. Finally, Applicants added aphidicolin and demembranated Xenopus sperm nuclei to the various extracts in order to create stalled replication forks and then examined phosphorylation of Xchk1 (FIG. 7D).
# (§4) Extracts from Xenopus eggs were prepared as described (Kumagai and Dunphy, 2000). A DNA replication checkpoint response was induced by addition of 50 μg/ml aphidicolin into extracts containing demembranated sperm nuclei (3000 per μl) (Kumagai and Dunphy, 2000). To monitor DNA replication, extracts containing 1000 sperm nuclei/μl were incubated with [α-^32P]dATP (Yoo et al., 2004).
# Xatr and Xatrip were immunodepleted as described (Kumagai et al., 2004). For immunodepletion of XtopBP1, we incubated 100 μl egg extract twice for 60 min with 10 μl Affiprep protein A beads (BioRad) containing 35 μg anti-XtopBP1 antibodies.
# [4] = system: human ATR; test: Kinase assay of recombinant human FLAG-ATR against S92 of GST-Xmcm2 (62-122); format: biochemical; settings: kinase-deficient human FLAG-ATR
# Experimental: (§5) Specifically, Applicants isolated wild-type and kinase-deficient versions of FLAG-tagged human ATR from nuclear extracts of U2OS cells that conditionally express these proteins (FIG. 5C). The recombinant ATR proteins were purified with anti-FLAG magnetic beads under conditions that preserve the binding of endogenous ATRIP (Ünsal-Kacmaz and Sancar, 2004). Next, Applicants incubated both the wild-type and kinase-deficient FLAG-ATR preparations in the absence or presence of GST-XtopBP1 (972-1279), and measured kinase activity against S92 of the GST-Xmcm2 (62-122) peptide.
# as §3
# (§6) U2OS cells conditionally expressing wild-type (GW33) or kinase-deficient (GK41) human FLAG-ATR were cultured as described (Nghiem et al., 2001). Cells were induced with 1 μg/ml doxycycline for 48 hr. Nuclear extracts were prepared as described (Dignam et al., 1983) except that nuclei were lysed by brief sonication and the concentration of NaCl in the nuclear isolation buffer was reduced to 350 mM in order to preserve the binding of endogenous ATRIP to recombinant ATR. FLAG-ATR proteins were isolated by an overnight incubation with anti-FLAG antibodies bound to protein G-magnetic beads (Dynal) and eluted with 3×-FLAG peptide.
# [5] = target: T1, human ATR (Homo sapiens, UniProt Q13535); test: as above; format: biochemical; settings: wild-type human FLAG-ATR from U2OS nuclear extracts
# T1 construct: expressed in transfected cells; host or cells: U2OS GW33 cells (doxycycline-inducible), nuclear extract, anti-FLAG purification
# Experimental: as §5, §3, §6
# [6] = system: Xchk1; test: Ectopic phosphorylation of 35S-Xchk1 in Xenopus egg extracts without checkpoint-inducing DNA; format: biochemical; settings: 35S-Xchk1, tautomycin, no checkpoint-inducing DNA template
# Experimental: Because the GST-XtopBP1 (972-1279) fragment could activate Xatr in vitro without the inclusion of DNA, Applicants reasoned that ectopic addition of this fragment to Xenopus egg extracts might also be able to trigger the Xatr-dependent phosphorylation of Xchk1 even in the absence of a checkpoint-inducing DNA template.
# as §4
# [7] = system: Xatr-Xatrip; test: Glutathione bead pull-down of Xatr and Xatrip from egg extracts; format: binding, Xenopus; settings: egg extracts, immunoblotting
# Experimental: Specifically, Applicants incubated glutathione beads containing GST-XtopBP1 (972-1279) in egg extracts, reisolated the beads, and performed immunoblotting for both Xatr and Xatrip. […] In addition, in other experiments, there was no binding of Xatr or Xatrip to beads containing GST fusions of the 1-348, 333-646, or 623-984 segments from XtopBP1 (data not shown).
# Applicants also tested to see if the association of XtopBP1 with Xatr depends upon Xatrip. For this experiment, Applicants removed endogenous Xatrip from egg extracts by immunodepletion with anti-Xatrip antibodies. As described previously, this procedure leaves behind approximately 30% of the endogenous Xatr, the fraction that is not in a complex with Xatrip (Kumagai et al., 2004). Next, Applicants added GST-XtopBP1 (972-1279) to the Xatrip-depleted extracts and to mock-depleted extracts that had been prepared in parallel.
# [8] = system: human Mcm2 on S108; test: Phosphorylation of Mcm2 on S108 in transfected human 293T cells; format: cell-based; settings: immunoblotting
# From the text: To pursue this issue further, Applicants asked whether the ATR-activating domain of TopBP1 could induce ATR-dependent phosphorylation in human cells. For this purpose, Applicants constructed a version of the enhanced green fluorescent protein (EGFP) containing the SV40 nuclear localization sequence and residues 978-1286 of human TopBP1 (equivalent to residues 972-1279 of XtopBP1). Applicants also produced the W1145R mutant of this plasmid (analogous to the W1138R mutant of XtopBP1). Applicants transfected plasmids encoding these proteins into human 293T cells and performed immunoblotting with anti-phosphopeptide antibodies that detect phosphorylation of human Mcm2 on S108 (which corresponds to S92 of Xmcm2) (Cortez et al., 2004; Yoo et al., 2004).
# pEGFP-NLS-TopBP1 (978-1286), which encodes EGFP followed by a nuclear localization sequence (KKKRKV, SEQ ID NO: 11) and amino acids 978-1286 of human TopBP1, was prepared from pEGFP (Clontech) by standard polymerase chain reaction-based methods. Plasmids were transfected into 293T cells with Lipofectamine 2000 (Invitrogen).
molecule,measurement,setting,value
"Cn1c(=O)c2c(ncn2C)n(C)c1=O [caffeine, reference compound]",IC50,"[1]; Xatr-XatripΔN222 activated by His6-XtopBP1, PHAS-I substrate, 0.04-5 mM caffeine, read-out: half-maximal inhibition of the XtopBP1-activated form of Xatr",~400 µM
XtopBP1: His6-tagged full-length Xenopus TopBP1 purified from baculovirus-infected insect cells,half-maximal induction of kinase activity,"[2]; Xatr-XatripΔN222, PHAS-I substrate, dose-response 0.5-30 μg/ml XtopBP1",10 to 15 µg/mL
same,induced kinase activity toward PHAS-I,[2]; XatripΔN222-FLAG preparation from Xatr-depleted extracts,could not elicit any kinase activity
same,induced kinase activity toward PHAS-I,[2]; XatripΔN222-FLAG preparation from mock-depleted extracts,induced strong kinase activity
same,activation of Xatr kinase activity toward PHAS-I,[2],very large increase
same,kinase activity toward PHAS-I of the preparation alone,[2]; recombinant XtopBP1 without Xatr-Xatrip,negligible kinase activity
same,increase of kinase activity of Xatr,[1]; Xatr immunoprecipitated from Xatrip-depleted extracts,could not significantly increase
same,rescue of phosphorylation of Xchk1,[3],rescue the phosphorylation of Xchk1 fully
B1,activity of kinase-deficient FLAG-ATR,[4],neither the intact nor W1138R mutant form of GST-XtopBP1 (972-1279) had any effect
same,kinase activity of wild-type FLAG-ATR,[5],did not induce any activation
same,activation of Xatr kinase activity toward PHAS-I,[2],totally lost its capacity
same,phosphorylation of Xchk1 in egg extracts,[6],"none of the ΔRQLQ, ΔWDDP, or W1138R mutants of the 972-1279 fragment could induce ectopic activation"
same,binding of Xatr and Xatrip to glutathione beads,[7],retains significant ability to bind Xatr-Xatrip
B2,phosphorylation of Mcm2 on S108,[8],no effect
